Like-named read-outs stand apart in the source and are kept apart here.
Key:
[1] = target: GFP10-tagged constitutively active CDC42 L61 mutant (UniProt P60953); assay: split reporter (BiFC, NanoBiT); tripartite split-GFP: GFP10-GTPase mutant and GFP11-tagged partner co-transfected in MRC5 cells stably expressing GFP1-9; fixed 20 h after transfection; percent of reconstituted GFP (rGFP) positive cells by flow cytometry
[2] = target: GFP10-tagged constitutively active RAC1 L61 mutant (UniProt P63000); assay: as above
[3] = target: GFP10-RHOA of the triSFP-RHOA reporter cells (UniProt P61586); assay: split reporter (BiFC, NanoBiT); intracellular competition in triSFP-RHOA cells (MRC5_GFP1-9 with doxycycline-induced GFP10-RHOA and GFP11-RBD); mCherry fusions transfected; rGFP fluorescence by flow cytometry in quartiles of mCherry expression
Sequence of GFP10-RHOA of the triSFP-RHOA reporter cells (P61586 whole entry, the tested form may be a part): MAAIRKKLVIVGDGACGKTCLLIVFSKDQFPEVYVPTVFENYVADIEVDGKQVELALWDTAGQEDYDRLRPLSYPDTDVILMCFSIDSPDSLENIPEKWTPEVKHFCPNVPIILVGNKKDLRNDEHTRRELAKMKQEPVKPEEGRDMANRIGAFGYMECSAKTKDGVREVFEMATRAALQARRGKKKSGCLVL

[4] = target: GFP10-tagged constitutively active RHOA L63 mutant (UniProt P61586); assay: split reporter (BiFC, NanoBiT); tripartite split-GFP: GFP10-GTPase mutant and GFP11-tagged partner co-transfected in MRC5 cells stably expressing GFP1-9; fixed 20 h after transfection; percent of reconstituted GFP (rGFP) positive cells by flow cytometry
Sequence of GFP10-tagged constitutively active RHOA L63 mutant (P61586 other isoform, or with tags, fused parts or gaps mutant): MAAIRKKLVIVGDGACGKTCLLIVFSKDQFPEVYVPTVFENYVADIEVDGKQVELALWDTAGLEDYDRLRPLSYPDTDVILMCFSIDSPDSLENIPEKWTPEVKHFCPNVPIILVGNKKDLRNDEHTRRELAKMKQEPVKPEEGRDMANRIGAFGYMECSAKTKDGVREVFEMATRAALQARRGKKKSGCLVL

[5] = target: GFP10-tagged constitutively active RHOA L63 mutant (UniProt P61586); assay: as above; remark: listed apart in the source

Sequence of GFP11 tagged PAK-BD (domain or fragment) (Q13153 2-545): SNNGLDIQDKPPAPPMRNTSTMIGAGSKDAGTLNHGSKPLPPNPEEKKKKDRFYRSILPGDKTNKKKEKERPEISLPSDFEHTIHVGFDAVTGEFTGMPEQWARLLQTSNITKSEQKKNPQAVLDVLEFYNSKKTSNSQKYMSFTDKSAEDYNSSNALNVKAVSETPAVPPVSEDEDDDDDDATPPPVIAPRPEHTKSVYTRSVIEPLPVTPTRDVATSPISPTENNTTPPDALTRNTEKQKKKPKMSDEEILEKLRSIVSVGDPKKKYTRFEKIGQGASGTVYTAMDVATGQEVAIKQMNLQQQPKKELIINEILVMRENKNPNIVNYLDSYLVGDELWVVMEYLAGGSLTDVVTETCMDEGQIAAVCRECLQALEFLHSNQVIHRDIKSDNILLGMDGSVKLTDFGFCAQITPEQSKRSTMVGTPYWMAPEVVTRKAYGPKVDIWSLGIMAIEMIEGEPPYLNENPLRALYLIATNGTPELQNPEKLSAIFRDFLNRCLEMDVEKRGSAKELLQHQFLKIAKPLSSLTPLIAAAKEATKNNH
Sequence of RHOTEKIN effector RHO Binding Domain (RBD) fused to a C-terminal GFP11 tag (domain or fragment) (Q8C6B2 whole entry, the tested form may be a part): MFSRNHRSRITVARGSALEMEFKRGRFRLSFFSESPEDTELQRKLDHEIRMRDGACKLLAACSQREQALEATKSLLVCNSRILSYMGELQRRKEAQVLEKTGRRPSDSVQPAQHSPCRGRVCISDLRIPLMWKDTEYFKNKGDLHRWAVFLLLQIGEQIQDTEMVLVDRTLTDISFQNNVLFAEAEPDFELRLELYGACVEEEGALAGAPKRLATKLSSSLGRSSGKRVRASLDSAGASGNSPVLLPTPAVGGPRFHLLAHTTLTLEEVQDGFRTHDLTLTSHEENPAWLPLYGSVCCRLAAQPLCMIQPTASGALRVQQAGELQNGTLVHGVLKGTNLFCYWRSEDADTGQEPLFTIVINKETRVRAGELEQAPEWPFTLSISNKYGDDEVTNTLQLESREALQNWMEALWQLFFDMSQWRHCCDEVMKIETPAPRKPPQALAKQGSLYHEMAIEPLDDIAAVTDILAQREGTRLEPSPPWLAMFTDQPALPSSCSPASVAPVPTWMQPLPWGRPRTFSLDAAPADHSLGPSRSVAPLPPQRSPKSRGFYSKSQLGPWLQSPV
Sequence of GFP10-tagged constitutively active CDC42 L61 mutant (P60953 other isoform, or with tags, fused parts or gaps mutant): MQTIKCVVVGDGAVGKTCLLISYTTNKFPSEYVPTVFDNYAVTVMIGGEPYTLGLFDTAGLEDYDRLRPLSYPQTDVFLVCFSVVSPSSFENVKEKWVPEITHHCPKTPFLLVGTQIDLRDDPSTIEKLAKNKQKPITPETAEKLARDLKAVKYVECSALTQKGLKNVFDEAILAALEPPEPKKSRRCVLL

GFP11 tagged PAK-BD (domain or fragment)
percent rGFP positive cells [1]: 11.8%
percent rGFP positive cells [2]: 9.9%

RBD-mCherry (domain or fragment)
percent decrease of rGFP fluorescence (competition with GFP11-RBD) [3]: 20%

RHOTEKIN effector RHO Binding Domain (RBD) fused to a C-terminal GFP11 tag (domain or fragment)
percent rGFP positive cells [4]: 28%
percent rGFP positive cells [5]: 25%

— publication PMC9433928
